For one experiment, the target named is HLA-B*15:42. In words: IEDB peptide-MHC binding, purified MHC/competitive/fluorescence; filed as Kd, often an IC50 or EC50 that approximates it; ≥ and ≤ were set here for values at or beyond the usual limits of such assays.
The target in a further experiment is HLA-A*32:15. The experiment is described as above.
A further experiment deals with HLA-B*27:20. Described as above. The note with it: source organism: Mammarenavirus juninense.
The target in another experiment is HLA-A*32:07. The description is as above. The note with it: source organism: Mammarenavirus juninense.
In the next experiment the target is HLA-B*45:06. Described as above.
The next experiment concerns the target HLA-A*02:01. As to the kind of experiment: IEDB peptide-MHC binding, purified MHC/direct/fluorescence; filed as Kd, often an IC50 or EC50 that approximates it; ≥ and ≤ were set here for values at or beyond the usual limits of such assays.
The next experiment has as its target HLA-C*03:03. Described as above.
In another experiment the target is HLA-A*31:01. The experiment is described as above. The note with it: source organism: Mycobacterium tuberculosis.
Another experiment concerns the target HLA-B*38:01. The description is as above.
In the next experiment the target is HLA-B*15:17. Described as above. The note with it: source organism: Mycobacterium tuberculosis.
The target of another experiment is HLA-B*51:01. The description is as above. The note with it: source organism: Mycobacterium tuberculosis.
The target of a further experiment is HLA-B*58:01. The experiment is described as above. The note with it: source organism: Mycobacterium tuberculosis.
Another experiment has as its target HLA-B*18:01. The experiment is described as above. The note with it: source organism: Mycobacterium tuberculosis.
For another experiment, the target named is HLA-A*11:01. The description is as above. The note with it: source organism: Mycobacterium tuberculosis.
Another experiment deals with HLA-B*08:01. The description is as above.
In a further experiment the target is HLA-A*03:01. The experiment is described as above. The note with it: source organism: Mycobacterium tuberculosis.
The target in a further experiment is HLA-B*40:01. Described as above. The note with it: source organism: Mycobacterium tuberculosis.
The target in another experiment is HLA-B*48:01. The experiment is described as above. The note with it: source organism: Mycobacterium tuberculosis.
The target of the next experiment is HLA-B*57:01. The description is as above. The note with it: source organism: Mycobacterium tuberculosis.
Another experiment addresses HLA-A*26:01. The experiment is described as above.
The target in the next experiment is HLA-B*27:05. The experiment is described as above. The note with it: source organism: Mycobacterium tuberculosis.
A further experiment addresses HLA-A*69:01. Described as above. The note with it: source organism: Mycobacterium tuberculosis.
For another experiment, the target named is HLA-A*01:01. The experiment is described as above. The note with it: source organism: Mycobacterium tuberculosis.
Another experiment addresses HLA-B*08:02. Described as above.
In experiment [1] the target is HLA-B*46:01. Described as above. The note with it: source organism: Mycobacterium tuberculosis.
The target of experiment [2] is HLA-B*15:01. The experiment is described as above. The note with it: source organism: Mycobacterium tuberculosis.
Another experiment addresses HLA-B*83:01. As to the kind of experiment: IEDB peptide-MHC binding, purified MHC/competitive/fluorescence; filed as Kd, often an IC50 or EC50 that approximates it; ≥ and ≤ were set here for values at or beyond the usual limits of such assays.
In experiment [3] the target is HLA-B*15:01. Described as above. The note with it: source organism: Mycobacterium tuberculosis variant bovis BCG str. Pasteur 1173P2.
The target in experiment [4] is HLA-C*14:02. The description is as above.
In the next experiment the target is HLA-C*08:02. As to the kind of experiment: IEDB peptide-MHC binding, purified MHC/direct/fluorescence; filed as Kd, often an IC50 or EC50 that approximates it; ≥ and ≤ were set here for values at or beyond the usual limits of such assays. The note with it: source organism: Pan troglodytes.
For another experiment, the target named is HLA-B*15:02. As to the kind of experiment: IEDB peptide-MHC binding, purified MHC/competitive/fluorescence; filed as Kd, often an IC50 or EC50 that approximates it; ≥ and ≤ were set here for values at or beyond the usual limits of such assays. The note with it: source organism: Brucella abortus S19.
Experiment [5] has as its target HLA-B*46:01. Described as above. The note with it: source organism: Brucella abortus S19.
The next experiment addresses HLA-C*12:03. In words: IEDB peptide-MHC binding, purified MHC/direct/fluorescence; filed as Kd, often an IC50 or EC50 that approximates it; ≥ and ≤ were set here for values at or beyond the usual limits of such assays. The note with it: source organism: Brucella abortus S19.
The next experiment addresses HLA-C*15:02. The experiment is described as above.
For another experiment, the target named is HLA-C*06:02. The description is as above.
The target in experiment [6] is HLA-C*14:02. Described as above. The note with it: source organism: Campylobacter jejuni.
Setting [7] is: source organism: Mammarenavirus juninense.
Where [8] appears, read: source organism: Mycobacterium tuberculosis F11.
Setting [9] is: source organism: Mycobacterium tuberculosis.
Where [10] appears, read: source organism: Mycobacterium tuberculosis variant bovis BCG str. Pasteur 1173P2.
The mark [11] stands for this setting: source organism: Mycobacterium tuberculosis str. Haarlem.
The mark [12] stands for this setting: source organism: Pan troglodytes.
Where [13] appears, read: source organism: Brucella abortus S19.
The mark [14] stands for this setting: source organism: Campylobacter jejuni.

The values below come from the Immune Epitope Database (IEDB).

Consider KLMDVVYSI, for which the Kd with HLA-B*15:42 (setting [7]) was at least 5 µM; with HLA-A*32:15 (setting [7]), 0.0556 µM; in the experiment with HLA-B*27:20, 0.0179 µM; with HLA-A*32:07, 0.0021 µM; with HLA-B*45:06 (setting [7]), at least 5 µM; with HLA-A*02:01 (setting [7]), 0.0009 µM. Besides, in the experiment with HLA-C*03:03 (setting [7]), the Kd was at least 20 µM.

In the case of KPKLARGEL, the Kd with HLA-A*31:01 is at least 20 µM; with HLA-B*38:01 (setting [8]), at least 20 µM; with HLA-B*15:17, at least 20 µM; with HLA-B*51:01, at least 20 µM; with HLA-B*58:01, at least 20 µM; with HLA-B*18:01 it was 2.57 µM. The Kd is at least 20 µM in the experiment with HLA-A*11:01; 0.19 µM with HLA-B*08:01 (setting [8]); at least 20 µM in the experiment with HLA-A*03:01; 1.16 µM in the experiment with HLA-B*40:01; at least 20 µM with HLA-B*48:01; at least 20 µM with HLA-B*57:01. Besides, the Kd in the experiment with HLA-A*02:01 (setting [9]) was at least 20 µM; with HLA-A*26:01 (setting [8]), at least 20 µM; with HLA-B*27:05, at least 20 µM; with HLA-A*69:01, at least 20 µM; with HLA-A*01:01, at least 20 µM; with HLA-B*08:02 (setting [8]), at least 5 µM. The Kd with HLA-B*46:01 [1] and with HLA-B*15:01 [2] was at least 20 µM throughout.

For RPRVAQLTF, the Kd in the experiment with HLA-B*15:42 (setting [10]) was at least 5 µM; with HLA-B*83:01 (setting [10]) it was 2.01 µM; in the experiment with HLA-B*45:06 (setting [10]), at least 5 µM; in the experiment with HLA-B*15:01 [3] it was at least 20 µM; in the experiment with HLA-A*31:01, at least 20 µM; with HLA-B*38:01 (setting [11]) it was at least 20 µM. The Kd is 0.169 µM with HLA-B*15:17; at least 20 µM with HLA-B*51:01; at least 20 µM in the experiment with HLA-B*58:01; 0.104 µM with HLA-B*18:01; at least 20 µM with HLA-A*11:01; 0.267 µM with HLA-B*08:01 (setting [11]). In addition, the Kd with HLA-A*03:01 is at least 20 µM; with HLA-B*40:01, at least 20 µM; in the experiment with HLA-B*48:01 it was at least 20 µM; with HLA-B*57:01, 0.864 µM; in the experiment with HLA-A*02:01 (setting [9]), at least 20 µM; with HLA-B*27:05, at least 20 µM. Also, the Kd is at least 20 µM in the experiment with HLA-A*69:01, 4.16 µM with HLA-A*01:01, 3.86 µM with HLA-B*08:02 (setting [11]) and at least 20 µM with HLA-B*46:01 [1].

Take VMPPRTLLL: the dissociation constant Kd is at least 5 µM with HLA-B*15:42 (setting [12]); at least 5 µM with HLA-B*83:01 (setting [12]); at least 5 µM in the experiment with HLA-B*45:06 (setting [12]); 0.0768 µM in the experiment with HLA-C*14:02 [4] (setting [12]); at least 20 µM with HLA-C*08:02; at least 20 µM in the experiment with HLA-C*03:03 (setting [12]).

Regarding YMRERLSDF, the Kd was 0.235 µM with HLA-B*15:02; at least 5 µM with HLA-B*15:42 (setting [13]); at least 5 µM with HLA-B*83:01 (setting [13]); at least 5 µM with HLA-B*45:06 (setting [13]); 0.018 µM in the experiment with HLA-C*14:02 [4] (setting [13]); 0.0306 µM with HLA-B*46:01 [5]. Further, the Kd with HLA-C*12:03 is 0.094 µM; with HLA-C*15:02 (setting [13]), at least 20 µM; with HLA-C*06:02 (setting [13]) it was 0.112 µM.

As to YTKKYLLSF, the Kd in the experiment with HLA-B*15:42 (setting [14]) was at least 5 µM; in the experiment with HLA-B*83:01 (setting [14]) it was at least 5 µM; with HLA-A*32:15 (setting [14]), 0.235 µM; in the experiment with HLA-B*45:06 (setting [14]), at least 5 µM; with HLA-C*15:02 (setting [14]) it was 5 µM; with HLA-C*06:02 (setting [14]) it was at least 20 µM. The Kd turned out to be 0.002 µM with HLA-A*26:01 (source organism: Campylobacter jejuni subsp. jejuni 81116) and 2.05 µM with HLA-C*14:02 [6].
